Measurements as given in paper doi:10.1101/426809.
Where two headings read alike, the source gives them in different places.

Legend:
[1] = target: HupA-HaloTag (HupA fused through a GS linker to HaloTag with a C-terminal 6xHis tag) (Clostridium difficile 630Δerm); experiment: cross-linking
[2] = target: HupA-LgBiT (HupA fused to the large subunit of the bitLuc^opt split luciferase) (Clostridium difficile 630Δerm); experiment: split reporter
[3] = target: HupA_(6xHis), C. difficile HupA (CD3496) with a 6x histidine tag (Clostridium difficile 630Δerm); experiment: cross-linking
[4] = target: HupA_(6xHis), C. difficile HupA (CD3496) with a 6x histidine tag (Clostridium difficile 630Δerm); experiment: cross-linking; remark: listed apart in the source
HupAQED6xHis = target: T1, HupAQED6xHis (Clostridium difficile 630Δerm, UniProt Q180Z4 1-92, R55Q;R58E;R61D); experiment: EMSA
T1 sequence: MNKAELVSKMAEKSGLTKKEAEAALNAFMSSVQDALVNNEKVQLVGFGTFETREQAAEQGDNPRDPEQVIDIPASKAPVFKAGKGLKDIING

**Q.** With “HupA-HaloTag (HupA fused through a GS linker to HaloTag with a C-terminal 6xHis tag) (natural protein)” as the molecule, how does the stoichiometry N [1] read?
**A.** 2

**Q.** With “HupA-SmBiT (HupA fused to the small subunit of the bitLuc^opt split luciferase) (natural protein)” as the molecule, how does the luciferase activity (LU/OD) after 1 h of induction [2] read?
**A.** 265000 LU/OD

**Q.** For “HupA_(6xHis), C. difficile HupA (CD3496) with a 6x histidine tag (natural protein)”, which stoichiometry N [3] is on record?
**A.** 2

**Q.** What about the stoichiometry N [4] of the same molecule?
**A.** 2

B1: oAF61/oAF62, 71.1% G+C (dsDNA)
DNA 1: CGCCAGGCCAGGGCTGTCACTGTGCAGCTCGTGGACGC
DNA 2: GCGTCCACGAGCTGCACAGTGACAGCCCTGGCCTGGCG
**Q.** Does B1 bind (HupAQED6xHis)?
**A.** no binding

B2: oAF63/oAF64, 52.6% G+C (dsDNA)
DNA 1: CATCAGGCAAGAGTAGTCACTGTGTAGCTCGTGGATGC
DNA 2: GCATCCACGAGCTACACAGTGACTACTCTTGCCTGATG
**Q.** Does B2 bind (HupAQED6xHis)?
**A.** no binding

B3: oAF65/oAF66, 28.9% G+C (dsDNA)
DNA 1: CATTAAGTATGAGTATTCTATGTATAGATCATTGATGC
DNA 2: GCATCAATGATCTATACATAGAATACTCATACTTAATG
**Q.** Does B3 bind (HupAQED6xHis)?
**A.** no binding
